According to US20080025968A1 (YEDA RESEARCH AND DEVELOPMENT, published 2008):

How the values were obtained:
Assay in all cases: western blot of the p55 TNF receptor complex from Ramos cells (FIG. 6a)
[1] = molecular target: T1, p65, endogenous (human, UniProt Q04206 1-551)
T1 construct: mature; also called RelA
Protocol: (§1) Transfections, immunoblotting and immunoprecipitations were performed as described in Example 2 and Example 3 of the Examples section. For immunoprecipitation of the CD70/CD27 ligand-receptor complexes from resting PBMC and Ramos cells, cell lysates were prepared as described for the kinase tests aforementioned and incubated for 4 hours at 4° C. with 25 μl of 50% M2-FLAG agarose beads per ml of lysate. The TNF-receptor complex was precipitated as described (Zhang et al., 2000). The signalosome from cell lysates was immunoprecipitated using a 1:1 mixture of two different antibodies against IKK1 (M-280 and H-744, Santa Cruz). Immunoprecipitation was allowed to continue for 2 hours at 4° C., using 10 μg of anti-IKKα antibodies adsorbed to 25 μl of 50% protein-A-Sepharose beads per ml of lysate.

[2] = molecular target: T2, p50, endogenous (human, UniProt P19838 1-433)
T2 construct: also called NF-κB1 processed form
T2 sequence (looked up): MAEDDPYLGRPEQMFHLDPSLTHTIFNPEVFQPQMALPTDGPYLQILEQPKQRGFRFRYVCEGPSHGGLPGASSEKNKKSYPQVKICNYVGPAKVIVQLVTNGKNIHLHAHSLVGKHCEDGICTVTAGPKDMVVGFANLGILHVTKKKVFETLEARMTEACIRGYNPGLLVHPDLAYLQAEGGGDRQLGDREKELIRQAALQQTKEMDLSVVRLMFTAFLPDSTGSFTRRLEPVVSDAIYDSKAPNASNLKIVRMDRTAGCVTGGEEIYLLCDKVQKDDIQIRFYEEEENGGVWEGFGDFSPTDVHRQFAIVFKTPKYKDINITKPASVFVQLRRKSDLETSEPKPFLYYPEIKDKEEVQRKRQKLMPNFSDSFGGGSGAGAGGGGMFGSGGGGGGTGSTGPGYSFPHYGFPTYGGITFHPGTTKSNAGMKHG
Protocol: as §1

[3] = molecular target: T3, NF-κB2/p100, endogenous (human, UniProt Q00653 1-900)
T3 construct: mature
T3 sequence (looked up): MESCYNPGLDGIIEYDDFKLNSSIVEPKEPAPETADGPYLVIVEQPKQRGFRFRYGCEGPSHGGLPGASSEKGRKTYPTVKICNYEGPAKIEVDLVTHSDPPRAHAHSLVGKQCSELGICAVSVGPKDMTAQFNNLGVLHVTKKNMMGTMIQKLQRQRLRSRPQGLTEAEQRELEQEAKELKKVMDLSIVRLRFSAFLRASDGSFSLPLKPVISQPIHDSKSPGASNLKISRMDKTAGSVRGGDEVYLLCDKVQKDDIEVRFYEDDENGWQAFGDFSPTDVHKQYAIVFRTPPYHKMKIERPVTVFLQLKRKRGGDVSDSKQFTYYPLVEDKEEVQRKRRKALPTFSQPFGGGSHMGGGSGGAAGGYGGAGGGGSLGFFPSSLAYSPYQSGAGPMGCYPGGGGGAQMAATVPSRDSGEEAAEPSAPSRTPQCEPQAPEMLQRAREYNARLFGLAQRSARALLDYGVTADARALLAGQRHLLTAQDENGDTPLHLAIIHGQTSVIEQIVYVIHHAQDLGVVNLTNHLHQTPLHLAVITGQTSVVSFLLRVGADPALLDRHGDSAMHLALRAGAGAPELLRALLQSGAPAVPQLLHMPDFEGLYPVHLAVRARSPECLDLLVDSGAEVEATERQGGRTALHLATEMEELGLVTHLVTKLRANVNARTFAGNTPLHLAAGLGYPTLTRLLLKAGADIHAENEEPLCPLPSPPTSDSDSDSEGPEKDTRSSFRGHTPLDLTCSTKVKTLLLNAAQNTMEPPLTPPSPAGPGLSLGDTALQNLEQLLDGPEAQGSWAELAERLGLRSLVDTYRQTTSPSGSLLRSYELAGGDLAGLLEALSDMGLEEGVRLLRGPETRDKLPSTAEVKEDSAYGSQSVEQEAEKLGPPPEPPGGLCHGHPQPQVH
Protocol: as §1

Measured: binding result

T1 sequence (Q04206 whole entry): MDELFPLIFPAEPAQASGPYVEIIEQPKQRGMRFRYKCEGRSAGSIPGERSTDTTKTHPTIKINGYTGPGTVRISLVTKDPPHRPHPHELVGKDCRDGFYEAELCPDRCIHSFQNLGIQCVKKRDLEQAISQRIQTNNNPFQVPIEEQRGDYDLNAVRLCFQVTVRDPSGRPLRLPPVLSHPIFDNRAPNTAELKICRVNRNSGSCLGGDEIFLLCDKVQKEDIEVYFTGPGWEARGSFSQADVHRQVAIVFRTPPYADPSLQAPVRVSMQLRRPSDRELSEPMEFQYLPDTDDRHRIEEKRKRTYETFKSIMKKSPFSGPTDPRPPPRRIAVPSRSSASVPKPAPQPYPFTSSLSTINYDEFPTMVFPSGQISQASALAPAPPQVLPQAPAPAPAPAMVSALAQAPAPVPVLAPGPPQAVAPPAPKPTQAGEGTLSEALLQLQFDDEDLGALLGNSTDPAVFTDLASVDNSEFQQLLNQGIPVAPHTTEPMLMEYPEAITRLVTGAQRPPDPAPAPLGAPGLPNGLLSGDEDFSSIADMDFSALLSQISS

B1: p55 TNF receptor, endogenous in Ramos cells (receptor, human, UniProt P19438 30-455, looked up)
chain: LVPHLGDREKRDSVCPQGKYIHPQNNSICCTKCHKGTYLYNDCPGPGQDTDCRECESGSFTASENHLRHCLSCSKCRKEMGQVEISSCTVDRDTVCGCRKNQYRHYWSENLFQCFNCSLCLNGTVHLSCQEKQNTVCTCHAGFFLRENECVSCSNCKKSLECTKLCLPQIENVKGTEDSGTTVLLPLVIFFGLCLLSLLFIGLMYRYQRWKSKLYSIVCGKSTPEKEGELEGTTTKPLAPNPSFSPTPGFTPTLGFSPVPSSTFTSSSTYTPGDCPNFAAPRREVAPPYQGADPILATALASDPIPNPLQKWEDSAHKPQSLDTDDPATLYAVVENVPPLRWKEFVRRLGLSDHEIDRLELQNGRCLREAQYSMLATWRRRTPRREATLELLGRVLRDMDLLGCLEDIEEALCGPAALPPAPSLLR
notes: whole, on cells; TNF-receptor complex precipitated as described by Zhang et al., 2000
binds: all assays above
